Molecular target: T1, recombinant PLAP extracellular domain protein (Sino Biological) (human, UniProt P05187 23-506)
T1 construct: Bought protein; also called purified recombinant PLAP protein; PLAP antigen
Test: BLI (Blitz ForteBio); antibody captured on anti-mouse-capture biosensors, PLAP antigen in solution
Procedure: The binding of PLAP antibody with recombinant PLAP extracellular domain protein from Sino Biological was performed using Blitz ForteBio system as described. In brief, anti-mouse-capture (AMC) biosensors were soaked in kinetics buffer (PBS, 0.1% Tween, 0.05% BSA) for 10 min and then with mouse anti-PLAP antibody at 0.1 mg/mL in same buffer for 30 min. After washing, biosensors were used to bind the PLAP antigen at different concentrations. The Kd was detected with Blitz system software.

T1 sequence (P05187 23-506): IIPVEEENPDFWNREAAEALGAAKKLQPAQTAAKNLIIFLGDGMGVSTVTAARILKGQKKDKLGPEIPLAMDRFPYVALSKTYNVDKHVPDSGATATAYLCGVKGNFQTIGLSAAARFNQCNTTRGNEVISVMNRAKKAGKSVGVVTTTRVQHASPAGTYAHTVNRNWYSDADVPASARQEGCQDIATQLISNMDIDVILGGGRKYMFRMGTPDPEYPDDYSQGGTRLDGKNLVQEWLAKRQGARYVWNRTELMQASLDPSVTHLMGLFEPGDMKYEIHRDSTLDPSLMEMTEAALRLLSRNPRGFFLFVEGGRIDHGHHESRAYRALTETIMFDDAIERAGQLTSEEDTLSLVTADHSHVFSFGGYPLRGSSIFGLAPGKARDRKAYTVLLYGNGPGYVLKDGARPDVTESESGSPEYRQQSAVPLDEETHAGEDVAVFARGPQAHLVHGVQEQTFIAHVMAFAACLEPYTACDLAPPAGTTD

Kd: 3.2 nM
B1: mouse monoclonal PLAP antibody (clone H17E2) (antibody, V domains shown)
VH: QVQLKESGPGLVAPSQSLSITCTVSGFSLTSYGVSWVRQPPRKGLEWLGVIWEDGSTNYHSALISRLSINKDNSKSQVFLKLNSLQTDDTATYYCAKPHYGSSYVGAMEYWGQGTSVTVSS
VL: DIQMTQSPASLTASVGETVTITCRASENIYSYVAWYQQKQGKSPQFLVYNAKSLAEGVPSRFSGSGSGTQFSLKINSLQPEDFGNYYCQHHYVSPWTFGGGTKLEIR
notes: Bought whole mouse monoclonal antibody (Thermo Fisher / Ximbio); also called PLAP antibody H17E2; mouse anti-PLAP antibody
